For data set [1], the system named is CCHFV nucleoprotein (NP) (Crimean-Congo hemorrhagic fever orthonairovirus). In words: fluorescence anisotropy.
The test system is the same in data set [2]. In words: competition fluorescence anisotropy.

27-mer RNA: the Kd in data set [1] was 190 nM. Moreover, in data set [2], the IC50 was 197 nM.

Substance 48-mer RNA registered a dissociation constant (Kd) in data set [1] of 230 nM. This substance registered an IC50 in data set [2] of 167 nM.
